{
  "source": "patent US20220251241A1",
  "about": "(NGM BIOPHARMACEUTICALS, published 2022)",
  "binders": {"B1": {"name": "antibody hz24F7.v2 (antibody, human IgG1, kappa, N297G, V domains shown)", "VH": "QVQLVQSGAEVKKPGASVKVSCKASGYTFTDYEMHWVRQAPGQRLEWMGAIDPETGGTAYNQKFKGRVTITADKSASTAYMELSSLRSEDTAVYYCTREGYSYEGGGYYFDYWGQGTLVTVSS", "VL": "DIQMTQSPSSLSASVGDRVTITCSVSSSVSYMYWYQQKPGKAPKLLIYDTSNLASGVPSRFSGSGSGTDFTFTISSLQPEDIATYYCQQWSSYPTFGQGTKLEIKR", "notes": "also called humanized variant of 24F7"}},
  "key": {"[1]": {"biological_target": "endogenous HTRA1 protein in the serum of the animals dosed with hz24F7.v2 (PK serum samples) (cynomolgus monkey)", "assay": "cell-based or functional assay"}, "[2]": {"biological_target": "T1, human HTRA1 full length protein (HTRA1-FL) (human, UniProt Q92743 23-480)", "T1 construct": "also called human HTRA1-FL", "T1 sequence (Q92743 23-480)": "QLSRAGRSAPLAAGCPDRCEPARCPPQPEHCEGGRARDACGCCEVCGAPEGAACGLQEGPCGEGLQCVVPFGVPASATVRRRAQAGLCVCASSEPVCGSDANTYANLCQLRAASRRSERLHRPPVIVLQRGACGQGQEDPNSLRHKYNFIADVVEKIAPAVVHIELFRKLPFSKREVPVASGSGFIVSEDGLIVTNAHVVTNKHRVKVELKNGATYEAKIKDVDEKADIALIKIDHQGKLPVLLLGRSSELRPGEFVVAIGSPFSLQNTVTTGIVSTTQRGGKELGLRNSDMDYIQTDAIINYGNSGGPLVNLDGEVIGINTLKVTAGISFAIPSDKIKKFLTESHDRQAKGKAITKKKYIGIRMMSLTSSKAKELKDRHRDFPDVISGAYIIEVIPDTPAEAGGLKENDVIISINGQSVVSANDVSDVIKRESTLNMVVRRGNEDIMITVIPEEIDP", "assay": "SPR (Biacore), 25° C."}, "[3]": {"biological_target": "T2, HTRA1-catalytic domain (HTRA1-CAT; amino acids 156-364 of SEQ ID NO:1) (human, UniProt Q92743 156-364)", "T2 construct": "Wild-type catalytic domain construct; also called HTRA1 catalytic domain protein", "T2 sequence (Q92743 156-364)": "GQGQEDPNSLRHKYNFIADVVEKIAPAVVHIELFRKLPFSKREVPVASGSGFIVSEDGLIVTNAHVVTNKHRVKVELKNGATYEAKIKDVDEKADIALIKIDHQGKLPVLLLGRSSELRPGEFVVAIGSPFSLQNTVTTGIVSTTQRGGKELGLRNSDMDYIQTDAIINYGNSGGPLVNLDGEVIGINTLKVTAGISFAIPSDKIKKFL", "assay": "SPR (Biacore), 25° C."}, "[4]": {"biological_target": "T1, human HTRA1 full length protein …", "assay": "SPR (Biacore), 37° C.", "procedure": "(§1) The binding affinities of anti-HTRA1 antibodies to human HTRA1 were measured using a Biacore system (GE Healthcare Life Sciences). Briefly, anti-Fc antibody (Sigma-Aldrich) was immobilized on all four flow cells of a CMS chip using amine coupling reagents (GE Healthcare LifeSciences). Antibodies were captured on flow cells 2, 3, and 4 using flow cell 1 as a reference. Concentrations ranging from 3.3-10 nM of human delta N-HTRA1 were injected at a flow rate of 50 μL/min at 37° C. Kinetic data were collected over time and fit using the simultaneous global fit equation to yield affinity constants (KD values) for each antibody.\n(§2) The binding affinity of hz24F7.v2 to a HTRA1 full length protein (HTRA1-FL) or a HTRA1-CAT was determined using a Biacore system as described herein and compared with the binding affinity of the parental 24F7 antibody (see Table 9)."}, "[5]": {"biological_target": "T2, HTRA1-catalytic domain (HTRA1-CAT; …)", "assay": "SPR (Biacore), 37° C.", "procedure": "as §1, §2"}, "[6]": {"biological_target": "T3, HTRA1 (construct not given) (Homo sapiens (Human), UniProt Q92743 23-480, limits assumed)", "T3 sequence (Q92743 23-480 limits assumed)": "as the sequence (Q92743 23-480) above", "assay": "cell-based or functional assay"}, "[7]": {"biological_target": "T3, HTRA1 (construct not stated in the …)", "assay": "cell-based or functional assay", "remark": "listed apart in the source"}, "[8]": {"biological_target": "T3, HTRA1 (construct not stated in the …)", "assay": "cell-based or functional assay", "remark": "listed apart in the source"}, "[9]": {"biological_target": "T3, HTRA1 (construct not stated in the …)", "assay": "cell-based or functional assay", "remark": "listed apart in the source"}, "[10]": {"biological_target": "T3, HTRA1 (construct not stated in the …)", "assay": "SPR (Biacore); affinity at baseline"}, "[11]": {"biological_target": "T2, HTRA1-catalytic domain (HTRA1-CAT; …)", "assay": "SPR (Biacore), 37° C.; * = Limit of Detection", "procedure": "as §1, §2"}, "[12]": {"biological_target": "T2, HTRA1-catalytic domain (HTRA1-CAT; …)", "assay": "SPR (Biacore), 25° C.; kon at the limit of detection"}, "[13]": {"biological_target": "T2, HTRA1-catalytic domain (HTRA1-CAT; …)", "assay": "SPR (Biacore), 37° C.; kon at the limit of detection", "procedure": "as §1, §2"}, "[14]": {"biological_target": "T3, HTRA1 (construct not stated in the …)", "assay": "protease inhibition assay, casein substrate; apparent Ki (Ki^app)", "from_the_text": "Two enzymatic assays were used to characterize HTRA1 protease activity and evaluate inhibitory activity of anti-HTRA1 antibodies. EnzChek® Protease Assay Kit (ThermoFisher Scientific) was used following the manufacturer's instructions. This kit contains casein protein that is heavily labeled with the pH-insensitive green-fluorescent BOPIPY® FL dye that results in almost total quenching of the conjugate's fluorescence. Protease-catalyzed hydrolysis of labeled casein releases highly fluorescent BODIPY® FL dye-labeled peptides. The concomitant increase in fluorescence is proportional to protease activity.\nTo confirm that the humanized version of antibody 24F7 retained the ability to inhibit H IRA1 protease activity, hz24F7.v2 was assessed in casein and H2-Opt assays as described herein."}, "[15]": {"biological_target": "T3, HTRA1 (construct not stated in the …)", "assay": "protease inhibition assay, H2-Opt peptide substrate; apparent Ki (Ki^app)"}, "[16]": {"biological_target": "T3, HTRA1 (construct not stated in the …)", "assay": "SPR (Biacore), 25° C.; antibody captured; sample stored 0 weeks at pH 7.4, 40° C.", "procedure": "(§3) The binding affinities of anti-HTRA1 antibodies to human HTRA1 were measured using a Biacore system (GE Healthcare Life Sciences). Briefly, anti-Fc antibody (Sigma-Aldrich) was immobilized on all four flow cells of a CMS chip using amine coupling reagents (GE Healthcare LifeSciences). Antibodies were captured on flow cells 2, 3, and 4 using flow cell 1 as a reference. […] Kinetic data were collected over time and fit using the simultaneous global fit equation to yield affinity constants (KD values) for each antibody. […]"}, "[17]": {"biological_target": "T3, HTRA1 (construct not stated in the …)", "assay": "SPR (Biacore), 25° C.; antibody captured; sample stored 2 weeks at pH 7.4, 40° C.", "procedure": "as §3"}, "[18]": {"biological_target": "T3, HTRA1 (construct not stated in the …)", "assay": "SPR (Biacore), 25° C.; antibody captured; sample stored 4 weeks at pH 7.4, 40° C.", "procedure": "as §3"}, "[19]": {"biological_target": "T3, HTRA1 (construct not stated in the …)", "assay": "SPR (Biacore), 25° C.; antibody captured; sample stored 8 weeks at pH 7.4, 40° C.", "procedure": "as §3"}, "[20]": {"biological_target": "T2, HTRA1-catalytic domain (HTRA1-CAT; …)", "assay": "SPR (Biacore), 25° C.; * = Limit of Detection; 25° C.; HTRA1-CAT; kon at limit of detection"}},
  "data": [
    {"binder": "B1", "values": [
      {"measurement": "amount of HTRA1 protein in PK serum samples after IV dosing of hz24F7.v2", "setting": "[1]", "value": "~4", "unit": "fold"},
      {"measurement": "amount of HTRA1 protein in PK serum samples after IVT dosing of hz24F7.v2", "setting": "[1]", "value": "~2", "unit": "fold"},
      {"measurement": "Kd", "setting": "[2]", "value": 0.058, "unit": "nM"},
      {"measurement": "koff", "setting": "[2]", "value": "4.2e-05", "unit": "s⁻¹"},
      {"measurement": "kon", "setting": "[2]", "value": 710000, "unit": "M⁻¹ s⁻¹"},
      {"measurement": "koff", "setting": "[3]", "value": "5.6e-05", "unit": "s⁻¹"},
      {"measurement": "Kd", "setting": "[4]", "value": 0.093, "unit": "nM"},
      {"measurement": "koff", "setting": "[4]", "value": 0.00014, "unit": "s⁻¹"},
      {"measurement": "kon", "setting": "[4]", "value": "1.5e+06", "unit": "M⁻¹ s⁻¹"},
      {"measurement": "koff", "setting": "[5]", "value": 0.00017, "unit": "s⁻¹"},
      {"measurement": "IC50, Casein Assay", "setting": "[6]", "value": 0.29, "unit": "nM"},
      {"measurement": "IC50, H2-Opt Assay", "setting": "[6]", "value": 0.12, "unit": "nM"},
      {"measurement": "IC50 at baseline", "setting": "[7]", "value": 0.066, "unit": "nM"},
      {"measurement": "IC50, enzyme assay; hz24F7.v2 reference in the S91Y column", "setting": "[8]", "value": 0.0645, "unit": "nM"},
      {"measurement": "IC50, enzyme assay; hz24F7.v2 reference in the S92T column", "setting": "[8]", "value": 0.0645, "unit": "nM"},
      {"measurement": "IC50 (read off the curve), HTRA1 enzymatic assay, Hz24F7.v2 standard (dark squares)", "setting": "[9]", "value": "~0.1", "unit": "nM"},
      {"measurement": "Kd", "setting": "[10]", "value": 0.0176, "unit": "nM"},
      {"measurement": "koff", "setting": "[10]", "value": 0.000225, "unit": "s⁻¹"},
      {"measurement": "kon", "setting": "[10]", "value": "1.28e+07", "unit": "M⁻¹ s⁻¹"},
      {"measurement": "kon", "setting": "[11]", "value": "1.1e+07", "unit": "M⁻¹ s⁻¹"},
      {"measurement": "Kd", "setting": "[12]", "value": "< 0.1", "unit": "nM"},
      {"measurement": "Kd", "setting": "[13]", "value": "< 0.1", "unit": "nM"},
      {"measurement": "Ki", "setting": "[14]", "value": 0.086, "unit": "nM"},
      {"measurement": "Ki", "setting": "[15]", "value": 0.067, "unit": "nM"},
      {"measurement": "Kd", "setting": "[16]", "value": 0.213, "unit": "nM"},
      {"measurement": "koff", "setting": "[16]", "value": 0.000416, "unit": "s⁻¹"},
      {"measurement": "kon", "setting": "[16]", "value": "1.95e+06", "unit": "M⁻¹ s⁻¹"},
      {"measurement": "Kd", "setting": "[17]", "value": 0.178, "unit": "nM"},
      {"measurement": "koff", "setting": "[17]", "value": 0.000374, "unit": "s⁻¹"},
      {"measurement": "kon", "setting": "[17]", "value": "2.1e+06", "unit": "M⁻¹ s⁻¹"},
      {"measurement": "Kd", "setting": "[18]", "value": 0.144, "unit": "nM"},
      {"measurement": "koff", "setting": "[18]", "value": 0.000388, "unit": "s⁻¹"},
      {"measurement": "kon", "setting": "[18]", "value": "2.68e+06", "unit": "M⁻¹ s⁻¹"},
      {"measurement": "Kd", "setting": "[19]", "value": 0.167, "unit": "nM"},
      {"measurement": "koff", "setting": "[19]", "value": 0.000502, "unit": "s⁻¹"},
      {"measurement": "kon", "setting": "[19]", "value": "3.01e+06", "unit": "M⁻¹ s⁻¹"},
      {"measurement": "kon", "setting": "[20]", "value": "≥ 3.9e+06", "unit": "M⁻¹ s⁻¹"}
    ]}
  ]
}
